Experimental data published in patent US20120034232A1 (INNATE PHARMA, published 2012).

B1: anti-TLR3 monoclonal antibody 23C8 (antibody, V domains shown)
VH: EVQLQQSGPELVKPGASVKISCKASGYSFTGYFMHWVKQSHVKSLEWIGRINPYNGATSYNQNFKDKASLTVDKSSSTSYMELHSLTSEDSAVYYCVRDDGGNYPFDYWGQGTTLTVS
VL: DIQMTQSPASLSASVGETVTITCRASENIYSYLAWYQQKQGKSPQLLVYYAKTLAEGVPSRFSGSGTGTQFSLKINSLQPEDFGSYYCQHHYGTPYTFGGGTKLEIK
B2: anti-TLR3 monoclonal antibody 28F11 (antibody, V domains shown)
VH: EVQLQQSGPELVKPGASVKISCKASGYSFTGYYIHWVKQSHVKSLEWIGRINPYYGATSYNQNFKDKANLTVDKSSSTAYMELHSLTSDDSAVYYCARSTKLGYLDYWGQGTTLTVS
VL: DIQMTQSPASLSASVGETVTITCRASENIYSNLAWYQQKQGKSPQLLIYNAKTLAEGVPSRFSGSGSGTQYFLKINSLQPEDFGSYYCQHHYGTPFTFGGGTKLEIK
B3: anti-TLR3 monoclonal antibody 29H3 (antibody, V domains shown)
VH: DVQLQESGPDLVKPSQSLSLTCTVTGYSITSGYSWHWIRQFLGNKLEWMGYIHYSGITNYNPSLRSRISFTRDTSKNQFFLQLNSVTTEDTATYYCARDGYYGMDYWGQGTSVTVS
VL: DIVMTQSQKFMSTSVGDRVSITCKASQNVRTSVAWYQQKPGQSPKALIYLASNRHTGVPDRFTGSGSGTDFTLTVSNIQSEDLADYFCLQHWNYPYTFGGGTKLEIK
notes: also called 29H3.7; CNCM I-4187
B4: anti-TLR3 monoclonal antibody 34A3 (antibody, V domains shown)
VH: EIQLQQSGPELVKPGASVKVSCKASGYVFTTYSIYWVKQSHGKSLEWIGYIDPYNGDTSYNQKFKGKATLTVDKSSSTAYMHLNSLTSEDSTVYYCAREGNYYGYFDYWGQGTTLTVS
VL: QIVLTQSPALMSASPGEKVTMTCSASSSVSYMFWYQQKPRSSPKPWIYLTSNLASGVPARFSGSGSGTSYSLTISSMEAEDAATYYCQQWTGNPPTFGGGTKLEIK

Columns and labels:
[1] = biological target: recombinant human His-tagged TLR3 extracellular domain recombinant protein (R&D systems, #1487-TR-050) (human) (UniProt O15455); test: SPR (Biacore T100), rhTLR3 immobilised on CM5 chip, antibody in solution, bivalent affinity, pH 5.6, mean of 2 or 3 experiments
[2] = biological target: recombinant human His-tagged TLR3 extracellular domain recombinant protein (R&D systems, #1487-TR-050) (human) (UniProt O15455); test: SPR (Biacore T100), rhTLR3 immobilised on CM5 chip, antibody in solution, bivalent affinity, pH 7.2, mean of 2 or 3 experiments
[3] = biological target: T1, human TLR3 expressed in cells (293T cells stably transfected with pUNO-hTLR3); endogenous TLR3 of human … (human, UniProt O15455 24-904); test: cell-based or functional assay
[4] = biological target: T2, recombinant human His-tagged TLR3 extracellular domain recombinant protein (R&D systems, #1487-TR-050) (human, UniProt O15455 24-704); test: ELISA, His-tagged rec TLR3 (reference: His-tagged rec TLR4) on Ni-NTA plates, hybridoma supernatant
T2 construct: Bought protein; also called recombinant human TLR3; rhTLR3; not shown: His tag

[5] = biological target: T1, human TLR3 expressed in cells (293T …); test: cell-based or functional assay; remark: listed apart in the source

| Kd [1] [nM] | Kd [2] [nM] | IC50 of inhibition of luciferase expression in 293-huTLR3 cells, polyAU 300 µg/ml [3] [µg/mL] | ratio of DO obtained in TLR3 ELISA to DO obtained in TLR4 ELISA [4] | IC50 of inhibition of luciferase expression, polyAU 100 µg/ml [5] [µg/mL] | Molecule |
| --- | --- | --- | --- | --- | --- |
| 9 | 45 |  |  |  | anti-TLR3 antibody TLR3.7 (eBiosciences) |
|  |  | 1.83 | > 10 | < 5 | B1 |
|  |  | 5.56 | > 10 |  | B2 |
|  |  |  | > 10 |  | B3 |
|  |  |  |  | < 5 | B4 |
